Measurements from paper PMC12948210 (2025).

Experiments:
Assay in all cases: GST pull-down; 500 mM NaCl; denaturing pull-down (His-DDX21 purified in urea or guanidine)
[1] = target: T1, GST-tagged EIF1AX RBP fragment (Homo sapiens (Human), UniProt P47813)
T1 chain: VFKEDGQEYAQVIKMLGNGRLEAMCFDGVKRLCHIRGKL

[2] = target: T2, GST-tagged EIF1AX IDR2 fragment (Homo sapiens (Human), UniProt P47813)
T2 chain: DIGDDDEDIDDI

[3] = target: T3, GST-tagged EIF1AX IDR1 fragment (Homo sapiens (Human), UniProt P47813)
T3 chain: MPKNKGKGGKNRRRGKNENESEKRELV

B1: His-DDX21 (protein)
chain: MPGKLRSDAGLESDTAMKKGETLRKQTEEKEKKEKPKSDKTEEIAEEEETVFPKAKQVKKKAEPSEVDMNSPKSKKAKKKEEPSQNDISPKTKSLRKKKEPIEKKVVSSKTKKVTKNEEPSEEEIDAPKPKKMKKEKEMNGETREKSPKLKNGFPHPEPDCNPSEAASEESNSEIEQEIPVEQKEGAFSNFPISEETIKLLKGRGVTFLFPIQAKTFHHVYSGKDLIAQARTGTGKTFSFAIPLIEKLHGELQDRKRGRAPQVLVLAPTRELANQVSKDFSDITKKLSVACFYGGTPYGGQFERMRNGIDILVGTPGRIKDHIQNGKLDLTKLKHVVLDEVDQMLDMGFADQVEEILSVAYKKDSEDNPQTLLFSATCPHWVFNVAKKYMKSTYEQVDLIGKKTQKTAITVEHLAIKCHWTQRAAVIGDVIRVYSGHQGRTIIFCETKKEAQELSQNSAIKQDAQSLHGDIPQKQREITLKGFRNGSFGVLVATNVAARGLDIPEVDLVIQSSPPKDVESYIHRSGRTGRAGRTGVCICFYQHKEEYQLVQVEQKAGIKFKRIGVPSATEIIKASSKDAIRLLDSVPPTAISHFKQSAEKLIEEKGAVEALAAALAHISGATSVDQRSLINSNVGFVTMILQCSIEMPNISYAWKELKEQLGEEIDSKVKGMVFLKGKLGVCFDVPTASVTEIQEKWHDSRRWQLSVATEQPELEGPREGYGGFRGQREGSRGFRGQRDGNRRFRGQREGSRGPRGQRSGGGNKSNRSQNKGQKRSFSKAFGQ
[1]
  binding result: binds
[2]
  binding result: no binding
[3]
  binding result: no binding
